Measurements: publication PMC3435532

Tests used:
[1] = test system: FLI1-CTD (C-terminal FLI1 domain, non-acetylated); assay: EMSA; settings: Non-radioactive EMSA: 1 ug protein, 500 fmol biotinylated dsDNA, binding buffer per Uren et al. 2004 (not given); 6% gel in 0.5x TBE; protein stock 20 mM …
acetyl-FLI1-CTD = assay: EMSA; settings: acetylated by CBP HAT; 1 ug protein, 500 fmol probe; Non-radioactive EMSA: 1 ug protein, 500 fmol biotinylated dsDNA, binding buffer per Uren et al. 2004 (not given); 6% gel in 0.5x TBE; protein stock 20 mM …

Substance: ets-binding site oligonucleotide (wild type)
- binding signal (fold (reference, non-acetylated)) [1]: 1
- binding signal (fold vs non-acetylated FLI1-CTD) (acetyl-FLI1-CTD): 4
